Here are results for 27 sequences from the supplement of paper PMC12764529.

± gives the half width of the 95% confidence interval.

Series [1] can be described thus: folding stability dG unfold from trypsin proteolysis; higher = more stable. Put shortly:
(§1)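 Unfolding free energy was derived, per protease or combined, against a sequence-predicted unfolded-state K50 and a shared folded-state K50, starting from K50 inferred by Bayesian fitting of sequencing counts. Digestion with trypsin and chymotrypsin was carried out on designed mini-proteins under 80 residues without cysteine in a PA-tagged cDNA display construct. Only designs with AlphaFold2 dimer inter-PAE above 15 were kept.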

Series [2] is described as follows: folding stability dG unfold from chymotrypsin proteolysis; higher = more stable. Put shortly: as §1
The nature of series [3]: folding stability dG unfold (combined trypsin and chymotrypsin); higher = more stable. Put shortly:
as §1

As to “SAGGSEPEPLRVSEITDIKESVLPNGTLKATVTLKLPEKDEEVEIEVEASSEEEIEEAIEEIVKLESAGGSA [r2_248_JUSTAS]”, the “folding stability dG unfold” value is 0.678 ± 0.089 kcal/mol in series [1], 0.0425 ± 0.35 kcal/mol in series [2] and 0.482 ± 0.21 kcal/mol in series [3].
For the sequence “SAGGSEVETVKVKIKVKIDGKVYEVEAEVEVFTDEDGRKVLRITLPDGRVVEIPLEDADKIEEIEVSAGGSA [r2_297_TrROS_Hall]”, the entries for the “folding stability dG unfold” value in series [1], in series [2] and in series [3] were 4.7 ± 0.19 kcal/mol, 4 ± 0.11 kcal/mol and 4.25 ± 0.087 kcal/mol, respectively.
Consider “SAGGSFEPKREIEITLPNGREIEVWRYPGEGQMWVKLRFPNNGQKVEIPVKSPEDAEDSLKKFLKNSAGGSA [r2_70_TrROS]”, for which the “folding stability dG unfold” value in series [1] was -0.28 ± 0.29 kcal/mol; in series [2] it was -0.334 ± 0.35 kcal/mol; in series [3] it was -0.169 ± 0.25 kcal/mol.
For “SAGGSFPIADVKEVKVEAYPETNTAKVPFTFPNGVTAVADAYLDPVTGRPVLVVRTPDGRLVVLPLSAGGSA [r2_490_TrMRF]” the same measures were 1.43 ± 0.032 kcal/mol, 1.15 ± 0.12 kcal/mol and 1.3 ± 0.094 kcal/mol.
For “SAGGSFSVDVPPDATVEVEEKVKRPDGSEVHLKITITRLPTSGKVLVTVEDNPPEKGSTTKEEIVPLESAGG [r13_934_JUSTAS]”, in that order: -0.431 ± 0.38 kcal/mol, 0.975 ± 0.068 kcal/mol and 0.658 ± 0.28 kcal/mol.
For “SAGGSFVKIKVKFDNKPIEIPIPDFVQKVEGDYQTIVFPEGDADSVLKKLKEASKKIEIVKVEVVKPSAGGS [r8_490_TrMRF]”, in that order: -0.735 ± 0.24 kcal/mol, 0.618 ± 0.13 kcal/mol and 0.354 ± 0.12 kcal/mol.
For “SAGGSGGLRVELPFLLPDGYRVTLTVNPETGEITEIRVEPIDAVPPEPEVLPVVGFDPRYGVPLVLSAGGSA [r2_78_TrMRF]”, the “folding stability dG unfold” value in series [1] is 1.12 ± 0.026 kcal/mol; in series [2], 0.344 ± 0.14 kcal/mol; in series [3], 0.812 ± 0.12 kcal/mol.
For “SAGGSGIDFDIEFHNNHITIDIYMYDPNGQPIFEMTMTIPIPPVPPPPVPEVKVDDPEEAKEAKNQSAGGSA [r2_332_TrROS]”, in that order: 0.751 ± 0.14 kcal/mol, 2.35 ± 0.17 kcal/mol and 1.89 ± 0.21 kcal/mol.
For “SAGGSGKEFEVEKAVFIPLPDDRKLIIVKTKTSIQIVEYNGEEWKLVATYPYKDVPKNPRELLKKKSAGGSA [r2_133_TrMRF]”, in that order: 0.454 ± 0.22 kcal/mol, 1.13 ± 0.14 kcal/mol and 0.929 ± 0.22 kcal/mol.
For “SAGGSGMKLEKEIEVEVDPSGVGAEAVKEAVRAELEKEGYKVKVEIEVSEEEEKLYVKLHVEIYELSAGGSA [r2_172_JUSTAS]” the same measures were 0.999 ± 0.064 kcal/mol, 2.01 ± 0.14 kcal/mol and 1.57 ± 0.19 kcal/mol.
Regarding “SAGGSGMSFSITEEVVIPTPGPRTLLLLKTEGDIIIVERDGERLRPVKTVPRKEVPEEPEKLIEELSAGGSA [r2_133_JUSTAS]”, the “folding stability dG unfold” value was -1.07 ± 0.34 kcal/mol in series [1], -0.243 ± 0.15 kcal/mol in series [2] and -0.434 ± 0.12 kcal/mol in series [3].
For “SAGGSGMTETIKLSDPKNGLSVTVTVTFDPATGSKSVTITVESSEEAKEKVKALLEEKGLPVTVTSSAGGSA [r2_30_JUSTAS]” the same measures were 0.716 ± 0.063 kcal/mol, 1.55 ± 0.082 kcal/mol and 1.27 ± 0.081 kcal/mol.
For “SAGGSGMVITIPVELPTPRTLTFTFYPETGTATVEVSPGVPAAEVRATVEEVFAAHGLKLNPITLLSAGGSA [r2_497_JUSTAS]” the same measures were 0.995 ± 0.02 kcal/mol, 1.61 ± 0.075 kcal/mol and 1.39 ± 0.066 kcal/mol.
For “SAGGSGPPVLVRLEVEVLGEPYTLTLPVPASLIHPSQRVRFRVRVVSVDPVNNRVTVRIESVELYPSAGGSA [r2_479_TrMRF]”, in that order: 2.75 ± 0.065 kcal/mol, 3.018 ± 0.021 kcal/mol and 2.98 ± 0.036 kcal/mol.
As for “SAGGSGQKFEIDRMIHIPLPNGRMLYIMRMKNPIMIMEFNGDNFRPVATVPNDDIPPEIRDLIKKLSAGGSA [r2_133_TrROS]”, the “folding stability dG unfold” value amounted to 1.95 ± 0.068 kcal/mol in series [1], 2.25 ± 0.11 kcal/mol in series [2] and 2.27 ± 0.12 kcal/mol in series [3].
For “SAGGSGSSMSVSVSVTTSPVSVDPNKPVPIEVATTTTPVSSYDPVTGTSSTTTTTTTVPLGNPEAASAGGSA [r2_489_JUSTAS]”, in that order: 2.62 ± 0.081 kcal/mol, 1.42 ± 0.044 kcal/mol and 1.98 ± 0.051 kcal/mol.
For “SAGGSIEELAREKALEEHKKTGEKNYPFTFEFEIVSSYEFAPDGTPVASSEFPFKITLKFKLPPKKKSAGGS [r16_156_JUSTAS]” the same measures were 1.44 ± 0.024 kcal/mol, 2.88 ± 0.069 kcal/mol and 2.43 ± 0.12 kcal/mol.
For “SAGGSIETIAERARDLARELNPDDGKEYPITIEIRDPENNRPIRIKISVRYDPDGKIKKVKFTKFEPYSAGG [r13_770_TrROS]” the same measures were 1.03 ± 0.06 kcal/mol, 1.04 ± 0.11 kcal/mol and 1.06 ± 0.077 kcal/mol.
On to “SAGGSIKVFESESTDPATGKVTTTTTTVTESSEEPTPEAAKNTPPGETTTTTTTTTTTSPVPPGTAASAGGS [r8_274_JUSTAS]”, for which the “folding stability dG unfold” value in series [1] was found to be 0.476 ± 0.057 kcal/mol; in series [2], 0.67 ± 0.022 kcal/mol; in series [3] it was 0.54 ± 0.14 kcal/mol.
For “SAGGSIRIYANNVEITDIEIGDDGYIEIKVRMRGPNGQPQEFTLMIRVVPPPPPPKVDPNDPDAKDSAGGSA [r2_368_TrROS]” the same measures were 2.51 ± 0.1 kcal/mol, 3.5 ± 0.29 kcal/mol and 3.08 ± 0.31 kcal/mol.
For “SAGGSITSTTTLPDGTTVTTTVLPSGVTVVTTSTLDPATGTVSTTTTTLPPSSATTTTTTTTVPPLTSAGGS [r16_230_JUSTAS]”, in that order: 3.18 ± 0.12 kcal/mol, 2.16 ± 0.029 kcal/mol and 2.58 ± 0.046 kcal/mol.
For “SAGGSIWIPIDSPEDVEEAIDFIQDFLAERGMPPGHDIKKIKVERMENGHYWVEIEFPGRKIYIWVSAGGSA [r2_120_TrROS]”, in that order: 2.62 ± 0.049 kcal/mol, 4.02 ± 0.054 kcal/mol and 3.65 ± 0.084 kcal/mol.
As for “SAGGSKIHIPIDPESGNFRIKVYPPDEPKEVSIQFKDPDDPEEFMDRAIEEANEYANNGYRVEIEPSAGGSA [r2_118_TrROS]”, the “folding stability dG unfold” value in series [1] was -0.52 ± 0.3 kcal/mol; in series [2], -0.278 ± 0.58 kcal/mol; in series [3], -0.668 ± 0.48 kcal/mol.
On to “SAGGSKIKIVEVKKNEDGTVTVKVEVEINGKKYTIEARFETLEDGKKVMTLRITNENGEEIEIVLPSAGGSA [r2_376_TrROS_Hall]”, for which the entries for the “folding stability dG unfold” value in series [1], in series [2] and in series [3] were 3.45 ± 0.38 kcal/mol, 5.22 ± 0.17 kcal/mol and 5.12 ± 0.32 kcal/mol, respectively.
For “SAGGSKIPLDNIKVITIMYNPKEGMYWISIRFPNNGKEVVFPYEDAPKILEKFPEIKEIEVYPFPPSAGGSA [r2_159_TrROS]” the same measures were 2.25 ± 0.11 kcal/mol, 2.76 ± 0.036 kcal/mol and 2.59 ± 0.084 kcal/mol.
As to “SAGGSKKTLTITVKNKETGETVKIKVELTPDGKKIKITIVAKKEEEAKEAAKKLLEELGYKVEIVPSAGGSA [r2_30_TrROS_Hall]”, the figures for the “folding stability dG unfold” value in series [1], in series [2] and in series [3] were 3.15 ± 0.36 kcal/mol, 1.61 ± 0.066 kcal/mol and 2.09 ± 0.2 kcal/mol, respectively.
Regarding “SAGGSKKVILIAKIPNEDKYLVLIASDSPELVKEAAKKAKKPGFYVLGEMTVEEAVKKLGLPPELFKSAGGS [r16_438_TrMRF]”, the figures for the “folding stability dG unfold” value in series [1], in series [2] and in series [3] were 1.04 ± 0.03 kcal/mol, 2.5 ± 0.051 kcal/mol and 2.23 ± 0.19 kcal/mol, respectively.
